What was measured:
[1] = target: T1, Human CLDN18.1 (human, UniProt P56856 1-261); assay: flow cytometry, purified construct on transfected HEK293-6E cells
T1 construct: On transfected HEK293-6E cells

[2] = target: T2, Mouse CLDN18 A2.1 (mouse, UniProt P56857 10-264); assay: FACS on transfected HEK293-6E cells, 4 parameter logistic fit
T2 construct: On transfected HEK293-6E cells; also called Mouse CLDN18 2.1; mouse CLDN18.2 ortholog
T2 chain: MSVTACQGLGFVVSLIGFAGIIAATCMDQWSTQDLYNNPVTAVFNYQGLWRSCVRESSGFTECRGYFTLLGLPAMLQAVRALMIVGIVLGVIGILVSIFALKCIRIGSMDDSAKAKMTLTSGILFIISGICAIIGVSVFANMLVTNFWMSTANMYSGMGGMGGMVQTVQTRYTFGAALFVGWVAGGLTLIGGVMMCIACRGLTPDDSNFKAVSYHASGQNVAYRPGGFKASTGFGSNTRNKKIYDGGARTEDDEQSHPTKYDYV

[3] = target: T3, Human CLDN18.2 (human); assay: as above
T3 construct: On transfected HEK293-6E cells; also called Claudin18.2

[4] = target: T4, Cynomolgus monkey CLDN18 (cynomolgus monkey); assay: as above
T4 construct: On transfected HEK293-6E cells; also called Cyno CLDN18; cynomologus monkey CLDN18.2 ortholog
T4 chain: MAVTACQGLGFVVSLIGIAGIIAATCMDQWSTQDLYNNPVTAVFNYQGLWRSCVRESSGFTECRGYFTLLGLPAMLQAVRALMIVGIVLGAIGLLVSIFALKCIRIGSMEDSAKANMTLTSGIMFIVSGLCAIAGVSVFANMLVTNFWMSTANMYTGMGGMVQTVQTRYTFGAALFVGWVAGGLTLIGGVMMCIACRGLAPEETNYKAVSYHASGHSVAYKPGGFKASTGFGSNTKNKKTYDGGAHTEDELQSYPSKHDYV

T1 sequence (P56856 whole entry): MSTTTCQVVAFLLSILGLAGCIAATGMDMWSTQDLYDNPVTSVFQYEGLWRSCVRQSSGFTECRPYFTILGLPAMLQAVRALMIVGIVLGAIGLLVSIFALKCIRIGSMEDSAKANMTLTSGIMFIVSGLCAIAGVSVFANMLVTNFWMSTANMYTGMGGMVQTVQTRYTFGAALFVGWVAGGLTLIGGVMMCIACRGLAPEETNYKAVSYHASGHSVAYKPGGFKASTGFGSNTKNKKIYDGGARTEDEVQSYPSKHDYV

B1: v35777 (antibody, human IgG1, V domains shown)
VH: QSLEESGGRLVTPGTPLTLTCTVSGIDLSSNPMIWVRQAPGKGLQYIGIIDTDGSTYYASWAKGRFTGSKTSTTVDLKITSPTTEDTATYFCARRLHGSSNGYYDDLWGQGTLVTISS
VL: DGVMTQTPSSVSAAVGGTVTIKCQASQSIYSYLSWYQQKPGQRPKLLIYKASTLASGVPSRFKGSGSGTEFTLTISGVQCDDAATYYCQQGYTVTNVDKNTFGGGTEVVVK
notes: Rabbit variable regions on human IgG1 (constant region starts at alanine Kabat-114) and human C kappa (starts at arginine Kabat-108); also called parental rabbit chimeric; rabbit-human chimeric IgG1/kappa antibody construct
B1 was tested, and the binding result [1] was “no binding”, the Bmax [2] was 1640 and the EC50 [2] was 0.87 nM. For the same binder, the Bmax [3] was 2070, the EC50 [3] was 1.29 nM and the Bmax [4] was 1660. For the same binder, the EC50 [4] was 0.48 nM.

Source: US20250019440A1 (Zymeworks, published 2025)
